The test system of one assay is A. fumigatus conidia. The assay can be described thus: FACS binding of biotin-conjugated murine SAP to A. fumigatus conidia, with competition. Also noted: species or system Aspergillus fumigatus. The following applies: Sap 0.1-10 μg/ml; Ptx3 50 μg/ml; anti-Sap monoclonal antibody detection. Here is the method: FIG. 1 depicts the interaction of SAP with A. fumigatus conidia in mice. a) induction of SAP circulating levels after i.t. injection of 5×10^7 A. fumigatus (AF) conidia; LPS, 0.8 mg/Kg. Mean±SD. c) FACS analysis of binding of biotin-conjugated (b-) murine SAP (Sap; 10 μg/ml) to viable dormant or germinating conidia of AF (1×10^8). Human SAP (50 μg/ml) and CRP (50 μg/ml) were also used. Mean±SD of one quadruplicate experiment of two performed.
FIG. 10 depicts the susceptibility to A. fumigatus associated with single or double deficiency for SAP and PTX3. a and b, survival of wt and Apcs^−/−, Ptx3^−/− and Apcs^−/−, Ptx3^−/− mice after i.t. injection of 1×10^8 (a) or 5×10^7 (b) conidia. a, wt, n=9 (a, b); n=9 (a, b); Ptx3^−/−, n=7 (a) or n=10 (b); Ptx3^−/−, n=5 (a) or n=12 (b). a, b, P<0.05, wt vs. Apcs^−/− P<0.01 wt vs. Apcs^−/−, Ptx3^−/−; P=0.06, Apcs^−/−, Ptx3^−/− vs. Ptx3^−/− (Mantel-Cox test). a) Curves of wt and Apcs^−/− refer to the same ones shown in FIG. 2a-c FACS analysis of Sap (range from 0.1 to 10 μg/ml) binding to viable AF conidia (1×10^8) in presence of Ptx3 (50 μg/ml). An anti-Sap monoclonal antibody (non-reactive to Ptx3) was used. Mean±SD of a triplicate. **, P<0.01;***, P<0.005;****, P<0.0001 (unpaired t-test).
Binding of SAP. Conidia of A. fumigatus and A. flavus (1×10^8 CFU) were cultured 4 and 16 h under static condition in Sabouraud medium to respectively allow conidia swelling and germination. Blastospores and yeast of Candida albicans were prepared as previously described (Santus et al., 2017). Yeast (8×10^6/ml) were incubated at 37° C. for hyphal induction. Formation of hyphae was evaluated under a microscope at different time points until its amount was assessed at 95%. […] After extensive washing, samples were incubated (30 min, r. t.) with Alexa Fluor® 647-conjugated streptavidin and binding was evaluated by FACS as frequency and MFI and visualized by confocal microscopy as described. […]
(In general: A flow cytometer gives signals particle by particle.)

The next assay concerns U937 cells. The assay can be described thus: Phagocytosis of A. fumigatus conidia by U937 cells overexpressing DC-SIGN. The format is cell-based, human. The note with it: U937 stably transfected for DC-SIGN and control cells. The text has this: FIG. 9 depicts how SAP effect on phagocytosis is independent from its interaction with DC-SIGN. a) detection of DC-SIGN expression in transfected U937 cells by FACS. Untransfected cells and an irrelevant IgG were used as control. Mean±SD of a quadruplicate experiment is shown. b) FACS analysis of fluorescein-labelled AF conidia (1×10^7) phagocytosis by U937 cells (1×10^5) overexpressing DC-SIGN.
U937 cell lines [control (ATCC® CRL-1593.2™) and transduced with human DC-SIGN (ATCC® CRL-3253™)] were cultured in RPMI-1640 medium containing 5% FCS, 2 mM L-glutamine, 0.1 mM non-essential amino acids (all from Lonza-BioWhittaker™) and 0.05 mM 2-mercaptoethanol (BIO-RAD). DC-SIGN expression was ascertained by FACS using a rabbit polyclonal Ab (#ab5715, 5 μg/ml; AbCam, UK) and an Alexa Fluor® 488-conjugated goat anti rabbit (2 μg/ml; ThermoFisher-Molecular Probes). Phagocytosis of FITC-labelled A. fumigatus conidia (1×10^7) by U937 cells (1×10^5) was performed as above described above.

In assay [1] the test system is neutrophils in whole blood. The experiment in a line: Whole blood phagocytosis of A. fumigatus conidia by mouse neutrophils (FACS), with CD11b expression. The class given is cell-based, mice. The following applies: SAP pre-opsonised conidia; for phagocytosis by neutrophils: 1 and 20 min. Here is the method: FIGS. 7a and 7b depict the effect of SAP on A. fumigatus phagocytosis by neutrophils. a), b), FACS analysis (out of 3 performed) of phagocytosis (a) and CD11b internalization (b) in neutrophils after challenge with fluorescein-labelled AF conidia (5×10^6/100 μl of blood) opsonized or not with Sap is shown. a) neutrophil phagocytosis in whole blood of wt and Apcs^−/− mice. b) CD11b expression in neutrophils of a. a) and b) Mean±SEM;*, P<0.05;**, P<0.01;***, P<0.005;****, P<0.0005 (unpaired t-test).
FIG. 7c depicts the effect of human SAP on phagocytic activity. FACS analysis of neutrophil phagocytosis in blood of wt and Apcs^−/− mice after exposure with fluorescein-labelled AF conidia (5×10^6/100 μl of blood) opsonized or not with SAP. Figure refers to 2 experiments performed.***, P<0.005;***, P<0.0005 (unpaired t-test).
Cells and in vitro phagocytic activity. Phagocytosis assay in whole blood of A. fumigatus conidia by mouse and human neutrophils was performed as described (Moalli et al., 2010). Briefly, conidia (1×10^9) were labelled (1 h, r.t.) with FITC (Sigma-Aldrich; 5 mg/ml in DMSO), and eventually opsonized (1 h, r.t) with murine SAP (100 μg/ml; […]) and PTX3 (50 μg/ml; 1.1 μM). An amount of 1×10^7 FITC-conidia were added to 200 μl of mouse whole blood (collected with heparin) and incubated for 1, 5, 10, 20 or 30 min at 37° C. in an orbital shaker. Samples were immediately placed on ice and ACK lysis solution was added to lyse erythrocytes. Murine neutrophils were analysed by BD FACS Canto™ II Flow Cytometer (BD Biosciences) as previously described, and frequency and/or mean fluorescence intensity (MFI) of FITC neutrophils and CD11b expression were reported.

B1: murine PTX3: Recombinant murine PTX3 purified from Chinese hamster ovary cells (protein)
chain: ETSDDYELMYVNLDNEIDNGLHPTEDPTPCDCRQEHSEWDKLFIMLENSQMREGMLLQATDDVLRGELQRLRAELGRLAGGMARPCAAGGPADARLVRALEPLLQESRDASLRLARLEDAEARRPEATVPGLGAVLEELRRTRADLSAVQSWVARHWLPAGCETAIFFPMRSKKIFGSVHPVRPMKLESFSTCIWVKATDVLNKTILFSYGTKWNPYEIQLYLSSQSLVLVVGGKENKLAADTVVSLGRWSHLCGTWSSEQGSMSLWANGELVATTVEMAKSHSVPEGGLLQIGQEKNGCCVGGGFDESLAFSGRITGFNIWDRVLSEEEIRASGGVESCHIRGNVVGWGVTEIQAHGGAQYVS
Turning to B1, the “competition of murine SAP binding to conidia” value with A. fumigatus conidia is “competed”.

B2: SAP: Serum Amyloid P component, species not printed at the place; murine Sap per legend b89 for b91, unstated for b97 (protein, UniProt P12246 21-224, looked up)
Serum amyloid P-component: QTDLKRKVFVFPRESETDHVKLIPHLEKPLQNFTLCFRTYSDLSRSQSLFSYSVKGRDNELLIYKEKVGEYSLYIGQSKVTVRGMEEYLSPVHLCTTWESSSGIVEFWVNGKPWVKKSLQREYTVKAPPSIVLGQEQDNYGGGFQRSQSFVGEFSDLYMWDYVLTPQDILFVYRDSPVNPNILNWQALNYEINGYVVIRPRVWD
Regarding B2, the “SAP-mediated enhancement of phagocytosis, DC-SIGN transfected versus control cells” value in the assay with U937 cells is reported as “similar”. In addition, the entries for the “CD11b internalization in neutrophils” value in assay [1] (Apcs−/− neutrophils) and in assay [1] (wt neutrophils) were “restored CD11b internalization” and “prompted it”, respectively. Moreover, the phagocytosis by neutrophils result in assay [1] (Apcs−/− whole blood) is recorded as “rescued the defect”; in assay [1] (wt whole blood) it was “potentiated phagocytosis”.

The values are drawn from patent US20220054588A1, “USE OF SAP FOR THE TREATMENT OF EUROTIOMYCETES FUNGI INFECTIONS” (HUMANITAS MIRASOLE S.P.A., priority 2018, published 2022).
